In the nanobody polyreactivity screen of Harvey et al. (2022):

Assay: yeast display, Sf9 membrane polyspecificity reagent, FACS + sequencing; frameworks hold sequencing errors
Summary of the method: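 Using colony PCR, genes from sorted yeast display clones were amplified, then sequenced on MiSeq at 2 × 250 and filtered by CDR length. The clones had been stained with 10% biotinylated, detergent-solubilized Sf9 membrane reagent for 1 hour at 4 °C and sorted by FACS into low and high (top ~1%) gates on anti-HA and streptavidin fluorescence. Polyreactivity labels come from the gate of origin.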

Row | Sequence | polyreactivity (PSR sort gate)
1 | QVQVVESGGGLVQAGGSLRLSCAASGSIFFFYAMGWYRQAPGQERELVAAITGSGGSTYYADSVKGRFTISRDKAKNTVYLQMNSLKPEDPAVYYCAVRTSRQVYSYGGYESWGHGTQVTVSS | low polyreactivity
2 | QVQVVESGGGLVQAGGSLRLSCAASGSIFYDYAMGWYRQAPGKERELVAAISWSGGRTYYADSVKGRFTISRDYAKNTVYLQMNSLKPEDTAVYYCAATTGVRSRRYYYWGQGTQVSVSS | low polyreactivity
3 | QVQVVESGGGLVQAGGSLRLSCAASGSILGLYAMGWYRQAPGKERELVAAITYRGGRTDYADSVKGRFTISRDNAKNTVYLQMNCLKPEDTAVYYCAAGYLPRPRYSTSYLYYYWGQGTQVTVSS | high polyreactivity
4 | QVQVVESGGGLVQAGGSLRLSCAASGSTFGYYAMGWYRQAPGKERELVAAISGTGSTYYADSVKGRFTISRDNAKNTVFLQMNSLKPEDTAVYYCAAYPRGSQRYNYWGQGTQVTVSS | high polyreactivity
5 | QVQVVESGGGLVQAGGSLRLSCAASGSTFVIYDMGWYRQAPGKERELVAVITIIGGSTYYADAVKGRFTISRDNAKNTVYLELNSLKPEDTAVYDCAVEVGYTDSPYSYDYWGQGTQVTVSS | low polyreactivity
6 | QVQVVESGGGLVQAGGSLRLSCAASGSTLSKNAMGWYRQAPGKERELVAAITLRGGSTSFADSVKGRFTISRDNAMNTVYLHMNSLKPEDTAVYYCNAVSKFDYGYWVQGTQVTVSS | high polyreactivity
7 | QVRLVESGGGLVQAGGSLRLSCAASGFTFVVNAMGWYRQAPGKERELVAAITCSGGRTYYADSVKGRFTISRDNAKNTVSLQMNSLKPEDTAVYYCNAEWDDYEIEYDYWGQGTQVTVSS | low polyreactivity
8 | QVRLVESGGGLVQAGGSLRLSCAASGRIFYRYAIGWYRQAPGKERELVAAISSSGGSTYYADSVKGRFTISRDNAKNTVYLQMNSLKPEDTAVYYCAADAGSINSGYDYWGQGTQVTVSS | low polyreactivity
9 | QVRLVESGGGLVQAGGSLRLSCAASGRTFRIYAMGWYRQAPGKERELVAAIRWSGGTTYYADSVKGRFTISRDNAKNTVYLQMNSLKPEDTAVYYCNTNSYYEDDYWGQGTQVTVSS | high polyreactivity
10 | QVRLVESGGGLVQAGGSLRLSCAASGSTFKTYAMGWYRQAPGKERELVAAISAGGGSTYYADSVKGRFTISRDNAKNTVYLQMYSLKPEDTAVYYCAAAYIYAGWDYEYWGQGTQVTVSS | low polyreactivity
11 | QVWLQESGRGLLQACGSLRLSCAASGTISRDIFMGWYRQAPGKEREFVATIAQGGITNYADSVKGRFTISRDNAKNTVYLQMNSVKPGDTAVYFCAARDGNCYWFYYWGQGTQVTVSS | high polyreactivity
12 | QYQLGESGGGLVQAGGSLRLSCAASGRIFTWNAMGWYRQAPGKERELVAAIRRGGGTYADSVKGRYTISRDNGKNTFYLQMHSLKPEDTAVYYCAATSGYYAMNYWGQGTQVTVSS | high polyreactivity
13 | QYQLVESGGCLVQAGGTLRLRCAATGFTFKSYAMGWYRHAHGKAWELVAAISNRGGSTYYADSVKGRFTISRDNAKNSVYLQINSLKPEDNAVYYCATQYYVRPFDYWGQGTQVTVSS | high polyreactivity
14 | QYQLVESGGGLVQAGGSLRLSCAASGRIFLVYVMGWYRQAPGKERELVADITFSGGSTYYADSVKGRFTISRDNEKNNVYLQMNSLKPEYTAVYYCAAATWSFLDYWGQGTQVTVSS | high polyreactivity
15 | RVQLQESGGGLVQAGGTLRLSCAASGTIFIRGDMGWYRQAPGKEREFVATIDTGSNTYYADSEKGRFTISRDNAKKAVYLQMNCLKPGDTAVYYCVVDYQLSGRLWDWGQGTQVTLSS | low polyreactivity
16 | RVQLVESGGGLVQAGGSHRLSCAASGRIFKNYAIGWYRQAPGKQRELVASITIGSTTYAESEKGRFTISRDNAKNTVYLKMNSLKREDTAVYYCAARRPRGFQGPNPWGYYYWGQGTQVTVSS | high polyreactivity
17 | RVQLVESGGGLVQAGGSLRLSCAASGSIFLIYAMGWYRQAPGKERELVAAISTGDSTYYADSVKGRFTISRDNAKNTVYLQMNSLKPEDTAVYYCAADTYSYEVPWWSAGMDYWGQGTQVTVSS | high polyreactivity
